Measurements as given in patent US20220308072A1.

What was measured:
[1] = target: Recombinant, his tagged full length human frataxin protein (Abcam ab95502) (human) (UniProt Q16595); test: Simoa sandwich 3-step; capture Ab-1; frataxin 1000 pg/mL
[2] = target: Recombinant, his tagged full length human frataxin protein (Abcam ab95502) (human) (UniProt Q16595); test: Simoa sandwich 2-step; capture Ab-1; 50 pM SβG; frataxin 0.686 pg/mL
[3] = target: Recombinant, his tagged full length human frataxin protein (Abcam ab95502) (human) (UniProt Q16595); test: Simoa sandwich 3-step; capture Ab-3; frataxin 1000 pg/mL
[4] = target: Recombinant, his tagged full length human frataxin protein (Abcam ab95502) (human) (UniProt Q16595); test: Simoa sandwich 2-step (120 min-5 min); capture Ab-1; Diluent 1 + 10% NCS; frataxin 0.823 pg/mL
[5] = target: Recombinant, his tagged full length human frataxin protein (Abcam ab95502) (human) (UniProt Q16595); test: Simoa sandwich 3-step; capture Ab-1
[6] = target: Recombinant, his tagged full length human frataxin protein (Abcam ab95502) (human) (UniProt Q16595); test: Simoa sandwich 2-step (120 min-5 min); capture Ab-1; frataxin 8.23 pg/mL
[7] = target: Recombinant, his tagged full length human frataxin protein (Abcam ab95502) (human) (UniProt Q16595); test: Simoa sandwich 2-step (35 min-5 min); capture Ab-1; with helper beads; frataxin 55.6 pg/mL
[8] = target: Recombinant, his tagged full length human frataxin protein (Abcam ab95502) (human) (UniProt Q16595); test: Simoa sandwich 2-step (120 min-5 min); capture Ab-1; frataxin 2000 pg/mL
[9] = target: Recombinant, his tagged full length human frataxin protein (Abcam ab95502) (human) (UniProt Q16595); test: Simoa sandwich 2-step (35 min-5 min); capture Ab-1; with helper beads; frataxin 0.686 pg/mL
[10] = target: Recombinant, his tagged full length human frataxin protein (Abcam ab95502) (human) (UniProt Q16595); test: Simoa sandwich; capture Ab-1; no helper beads; frataxin 2.06 pg/mL
[11] = target: Recombinant, his tagged full length human frataxin protein (Abcam ab95502) (human) (UniProt Q16595); test: Simoa sandwich 2-step (120 min-5 min); capture Ab-1; Diluent 1 + 5% NCS; frataxin 200 pg/mL
[12] = target: Recombinant, his tagged full length human frataxin protein (Abcam ab95502) (human) (UniProt Q16595); test: Simoa sandwich; capture Ab-1; no helper beads; frataxin 0.686 pg/mL
[13] = target: Recombinant, his tagged full length human frataxin protein (Abcam ab95502) (human) (UniProt Q16595); test: Simoa sandwich 3-step; capture Ab-2; frataxin 1000 pg/mL
[14] = target: Recombinant, his tagged full length human frataxin protein (Abcam ab95502) (human) (UniProt Q16595); test: Simoa sandwich 2-step; capture Ab-1; 50 pM SβG; frataxin 6.17 pg/mL
[15] = target: Recombinant, his tagged full length human frataxin protein (Abcam ab95502) (human) (UniProt Q16595); test: Simoa sandwich 2-step; capture Ab-1; frataxin 0.686 pg/mL
[16] = target: Recombinant, his tagged full length human frataxin protein (Abcam ab95502) (human) (UniProt Q16595); test: Simoa sandwich 2-step (120 min-5 min); capture Ab-1; Diluent 1 + 10% NCS; frataxin 4.12 pg/mL
[17] = target: Recombinant, his tagged full length human frataxin protein (Abcam ab95502) (human) (UniProt Q16595); test: Simoa sandwich 2-step; capture Ab-2; frataxin 2.06 pg/mL
[18] = target: Recombinant, his tagged full length human frataxin protein (Abcam ab95502) (human) (UniProt Q16595); test: Simoa sandwich 2-step; capture Ab-4; frataxin 100 pg/mL
[19] = target: Recombinant, his tagged full length human frataxin protein (Abcam ab95502) (human) (UniProt Q16595); test: Simoa sandwich 2-step (35 min-5 min); capture Ab-1; with helper beads; frataxin 6.17 pg/mL
[20] = target: Recombinant, his tagged full length human frataxin protein (Abcam ab95502) (human) (UniProt Q16595); test: Simoa sandwich 2-step; capture Ab-1; frataxin 100 pg/mL
[21] = target: Recombinant, his tagged full length human frataxin protein (Abcam ab95502) (human) (UniProt Q16595); test: Simoa sandwich 2-step (120 min-5 min); capture Ab-1; Diluent 1 + 5% NCS
[22] = target: Recombinant, his tagged full length human frataxin protein (Abcam ab95502) (human) (UniProt Q16595); test: Simoa sandwich 2-step (120 min-5 min); capture Ab-1; Diluent 1 + 5% NCS; frataxin 12.3 pg/mL
[23] = target: Recombinant, his tagged full length human frataxin protein (Abcam ab95502) (human) (UniProt Q16595); test: Simoa sandwich; capture Ab-1; no helper beads; frataxin 55.6 pg/mL
[24] = target: Recombinant, his tagged full length human frataxin protein (Abcam ab95502) (human) (UniProt Q16595); test: Simoa sandwich 2-step; capture Ab-2

Sequence of UniProt Q16595 (Q16595 42-210): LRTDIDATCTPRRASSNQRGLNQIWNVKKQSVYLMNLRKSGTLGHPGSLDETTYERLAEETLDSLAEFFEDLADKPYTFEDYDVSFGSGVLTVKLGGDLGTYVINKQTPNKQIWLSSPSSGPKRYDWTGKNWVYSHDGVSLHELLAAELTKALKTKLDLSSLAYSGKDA

## Ab-3, mouse monoclonal [18A5DB1] to Frataxin (Abcam ab110328) (antibody)
[1]
  Ave AEB: 17.4 AEB
  S/B: 352
[2]
  Ave AEB: 0.0421 AEB
  S/B: 2.3
[3]
  Ave AEB: 0.0854 AEB
  S/B: 18.1
[4]
  Ave AEB: 0.0296 AEB
  S/B: 1.63
[5]
  LOD: 0.59 pg/mL
[6]
  AEB rep1: 0.0466 AEB
  AEB rep2: 0.048 AEB
  AEB rep3: 0.0517 AEB
  Ave AEB: 0.0487 AEB
  S/B: 5.91
[7]
  AEB Rep1: 3.47 AEB
  AEB Rep2: 3.28 AEB
  Ave AEB: 3.38 AEB
  S/B: 139
[8]
  AEB rep1: 9.8 AEB
  AEB rep2: 10.1 AEB
  AEB rep3: 9.8 AEB
  Ave AEB: 9.9 AEB
  S/B: 1200
[9]
  AEB Rep1: 0.0586 AEB
  AEB Rep2: 0.0638 AEB
  Ave AEB: 0.0612 AEB
  S/B: 2.51
[10]
  AEB Rep1: 0.0405 AEB
  AEB Rep2: 0.043 AEB
  Ave AEB: 0.0418 AEB
  S/B: 1.85
[11]
  Ave AEB: 4.24 AEB
  S/B: 235
[12]
  AEB Rep1: 0.0328 AEB
  AEB Rep2: 0.028 AEB
  Ave AEB: 0.0304 AEB
  S/B: 1.34
[13]
  Ave AEB: 17.2 AEB
  S/B: 388
[14]
  Ave AEB: 0.194 AEB
  S/B: 10.6
[15]
  Ave AEB: 0.165 AEB
  S/B: 1.59
[16]
  Ave AEB: 0.0283 AEB
  S/B: 2.63
[17]
  Ave AEB: 0.318 AEB
  S/B: 3.33
[18]
  Ave AEB: 8.49 AEB
  S/B: 69.3
[19]
  AEB Rep1: 0.387 AEB
  AEB Rep2: 0.399 AEB
  Ave AEB: 0.393 AEB
  S/B: 16.1
[20]
  Ave AEB: 7.11 AEB
  S/B: 88.8
[21]
  LOD: 0.268 pg/mL
[22]
  Ave AEB: 0.123 AEB
  S/B: 11.2
[23]
  AEB Rep1: 1.16 AEB
  AEB Rep2: 0.608 AEB
  Ave AEB: 0.885 AEB
  S/B: 39.1
[24]
  LOD: 0.27 pg/mL
